Laboratory results: patent publication US20070042930A1, “Effect of beta-glucan on stem cell recruitment and tissue repair” (priority 2002, published 2007)

System: complement
Assay: G-CSF mobilization: complement activation in bone marrow
Assay type: in vivo, mice

B1: G-CSF: used for G-CSF-mediated stem cell mobilization (bone marrow transplantation) (protein, UniProt P09919 31-207, looked up)
Granulocyte …: TPLGPASSLPQSFLLKCLEQVRKIQGDGAALQEKLVSECATYKLCHPEELVLLGHSLGIPWAPLSSCPSQALQLAGCLSQLHSGLFLYQGLLQALEGISPELGPTLDTLQLDVADFATTIWQQMEELGMAPALQPTQGAMPAFASAFQRRAGGVLVASHLQSFLEVSYRVLRHLAQP
- complement activation in bone marrow (G-CSF mobilization, FIG. 8A and 8B): stimulates complement activation in bone marrow with iC3b deposition on stromal cells
- complement activation in bone marrow (immunoglobulin-deficient SCID mice, FIG. 9A through 9F): does not activate complement
